Positions of bridges follow the written chain, without caps; N, C: chain ends. No end group written: not given here.
T1: Recombinant Human Erythropoietin R Fc Chimera Protein, CF (R&D systems, 963-ER-50) (human, UniProt P19235 25-250)
T1 construct: Bought reagent; also called EPO receptor immobilized on magnetic beads; Fc part of the bought chimera not given
T1 sequence (looked up): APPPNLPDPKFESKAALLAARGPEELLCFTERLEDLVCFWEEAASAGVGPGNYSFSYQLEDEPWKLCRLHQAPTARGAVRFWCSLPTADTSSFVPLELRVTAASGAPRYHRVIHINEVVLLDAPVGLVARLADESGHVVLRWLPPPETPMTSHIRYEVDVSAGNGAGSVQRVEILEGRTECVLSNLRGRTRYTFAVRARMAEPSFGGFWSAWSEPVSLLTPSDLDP


Assays:
[1] = target: Met (Homo sapiens, UniProt P08581); conditions: reported; cited from earlier work
Sequence of Met (P08581 25-1390): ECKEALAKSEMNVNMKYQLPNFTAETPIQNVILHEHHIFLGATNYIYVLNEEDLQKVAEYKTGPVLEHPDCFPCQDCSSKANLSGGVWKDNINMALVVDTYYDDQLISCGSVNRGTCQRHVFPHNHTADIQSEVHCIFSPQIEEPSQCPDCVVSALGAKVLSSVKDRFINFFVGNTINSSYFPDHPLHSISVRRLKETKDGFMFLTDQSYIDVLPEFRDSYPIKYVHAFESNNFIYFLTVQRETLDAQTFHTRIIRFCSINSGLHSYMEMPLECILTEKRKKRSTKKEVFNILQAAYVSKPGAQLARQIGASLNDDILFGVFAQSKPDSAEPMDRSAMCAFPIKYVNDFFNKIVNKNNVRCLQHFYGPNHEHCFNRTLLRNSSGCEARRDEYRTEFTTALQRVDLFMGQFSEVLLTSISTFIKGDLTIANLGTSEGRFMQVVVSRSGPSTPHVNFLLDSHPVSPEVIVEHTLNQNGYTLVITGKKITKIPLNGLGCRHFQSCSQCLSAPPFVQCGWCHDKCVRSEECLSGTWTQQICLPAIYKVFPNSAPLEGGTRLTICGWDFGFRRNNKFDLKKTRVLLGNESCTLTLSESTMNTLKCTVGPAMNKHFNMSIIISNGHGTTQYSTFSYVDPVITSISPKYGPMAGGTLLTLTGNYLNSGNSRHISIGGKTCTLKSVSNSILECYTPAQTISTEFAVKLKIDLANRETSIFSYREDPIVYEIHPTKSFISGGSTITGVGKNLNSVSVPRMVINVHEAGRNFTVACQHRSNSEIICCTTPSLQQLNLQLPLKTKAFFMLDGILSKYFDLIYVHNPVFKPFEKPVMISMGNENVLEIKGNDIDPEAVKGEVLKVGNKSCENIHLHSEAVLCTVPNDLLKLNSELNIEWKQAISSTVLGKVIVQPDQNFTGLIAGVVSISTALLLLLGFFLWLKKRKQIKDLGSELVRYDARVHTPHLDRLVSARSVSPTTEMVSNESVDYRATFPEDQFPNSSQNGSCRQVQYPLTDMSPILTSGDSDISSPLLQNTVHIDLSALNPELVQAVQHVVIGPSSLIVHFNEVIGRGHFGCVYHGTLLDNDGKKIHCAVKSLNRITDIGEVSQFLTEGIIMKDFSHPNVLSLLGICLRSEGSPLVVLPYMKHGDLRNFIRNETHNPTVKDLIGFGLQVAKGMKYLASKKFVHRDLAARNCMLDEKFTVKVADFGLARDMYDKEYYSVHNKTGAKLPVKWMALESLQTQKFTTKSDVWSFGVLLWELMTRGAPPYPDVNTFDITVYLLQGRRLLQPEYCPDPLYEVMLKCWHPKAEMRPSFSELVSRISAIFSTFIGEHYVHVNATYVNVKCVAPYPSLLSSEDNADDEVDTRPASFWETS

[2] = system: HGF-Erk-SRE pathway; assay: SRE luciferase reporter assay of aMD4dY-leucine zipper fusion dimers (Example 2); format: cell-based; conditions: HEK293E cells with SRE reporter; cell-free expression reaction solution at 25- to 625-fold dilution; overnight stimulation; HGF 0 to 100 ng/mL as comparator; FIGS. 8-13
Method: (§1) The dimer of each aMD4dY-leucine zipper fusion was evaluated by luciferase assay. To 25 μL of Opti-MEM medium (Thermo Fisher Scientific), 0.6 μL of Attractene Transfection Reagent (QIAGEN) was added and incubated at room temperature for 5 minutes. To the above mixed solution, a mixed solution of 25 μL of Opti-MEM and 1 μL of SRE reporter vector (QIAGEN) was added and incubated at room temperature for 20 minutes. This mixed solution was added to a 96-well plate, HEK293E cells were seeded thereon at 40,000 cells/well, and incubated overnight at 37° C. in a 5% CO2 incubator. After transfection, all the culture supernatant was removed, and 100 μL of Opti-MEM medium (evaluation basal medium), containing 0.5% FBS (Thermo Fisher Scientific), 1% non-essential amino acid solution (Thermo Fisher Scientific), and penicillin-streptomycin (Nacalai Tesque), was added thereto, which was cultured at 37° C. for 4 hours to starve the cells.
(§2) To the evaluation basal medium, 0 to 100 ng/mL HGF was added, or the cell-free expression reaction solution was added at a 25- to 625-fold dilution with respect to the medium, and 100 μL of the evaluation basal medium was added to the cells. The cells were stimulated by culturing overnight at 37° C. in a 5% CO2 incubator.
(§3) Dual-Luciferase Reporter Assay System (Promega) was used for signal intensity detection. The medium supernatant in an amount of 100 μL was removed, 50 μL of Glo reagent was added, and cells were lysed at room temperature for 10 minutes. Activation of the HGF-Erk-SRE pathway was quantified by detecting Firefly luciferase luminescence from cell lysates with a plate reader. Subsequently, 50 μL of Glo & Stop reagent solution was added, and after 10 minutes, luminescence of Renilla luciferase, an internal standard, was detected to quantify the cell count. The signal activity of each sample was quantified as SRE activity=(luminescence intensity of Firefly luciferase)/(luminescence intensity of Renilla luciferase). A signal activity value relative to a sample without an addition of evaluation compound was obtained and defined as relative reporter activity.

[3] = target: T2, Recombinant Human HGFR/c-MET Fc Chimera Protein (R&D systems, 8614-MT-100) (human, UniProt P08581 25-932); assay: ribosome display selection on c-MET Fc chimera on magnetic beads, from a 1:50:50 DNA mix; DNA length analysis of the recovered cDNA
T2 construct: Bought reagent; also called c-Met immobilized on magnetic beads; Fc part of the bought chimera not given
T2 sequence (P08581 25-932, change not shown): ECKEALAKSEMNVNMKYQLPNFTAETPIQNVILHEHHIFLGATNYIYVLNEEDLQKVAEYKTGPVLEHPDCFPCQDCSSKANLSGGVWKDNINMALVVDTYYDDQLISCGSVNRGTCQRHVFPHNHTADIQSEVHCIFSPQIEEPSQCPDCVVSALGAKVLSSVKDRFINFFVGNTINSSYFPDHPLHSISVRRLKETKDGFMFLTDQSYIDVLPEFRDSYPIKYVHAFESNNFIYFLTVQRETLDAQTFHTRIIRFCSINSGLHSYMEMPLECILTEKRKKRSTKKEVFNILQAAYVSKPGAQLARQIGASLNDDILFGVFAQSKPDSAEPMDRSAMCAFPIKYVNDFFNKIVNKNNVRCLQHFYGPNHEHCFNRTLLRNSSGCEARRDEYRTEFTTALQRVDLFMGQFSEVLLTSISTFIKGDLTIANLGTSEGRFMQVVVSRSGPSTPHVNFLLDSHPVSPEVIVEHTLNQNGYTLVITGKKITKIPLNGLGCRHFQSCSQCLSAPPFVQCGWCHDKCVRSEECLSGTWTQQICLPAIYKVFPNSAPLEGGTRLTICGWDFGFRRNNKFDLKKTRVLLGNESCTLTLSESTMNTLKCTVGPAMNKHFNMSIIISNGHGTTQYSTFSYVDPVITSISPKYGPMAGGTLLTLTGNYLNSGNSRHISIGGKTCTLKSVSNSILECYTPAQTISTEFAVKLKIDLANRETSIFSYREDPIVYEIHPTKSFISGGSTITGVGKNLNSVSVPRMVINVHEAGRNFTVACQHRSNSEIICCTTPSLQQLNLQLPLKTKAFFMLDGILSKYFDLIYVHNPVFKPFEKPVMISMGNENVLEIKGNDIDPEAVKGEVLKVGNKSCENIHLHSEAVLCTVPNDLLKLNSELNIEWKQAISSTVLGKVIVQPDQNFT

[4] = system: HGF-Erk-SRE pathway; assay: SRE luciferase reporter assay of cell-free translation products from ribosome display DNAs (Example 4); format: cell-based; conditions: HEK293E cells with SRE reporter; cell-free translation product at 25- to 625-fold dilution; HGF comparator; FIG. 16
Method: For cell-free translation, to 20 ng of each DNA, 2.5 μL of Solution I, 0.25 μL of Solution II, 0.5 μL of Solution III, and 1.75 μL of water were added, and the mixture was incubated at 37° C. for 6 hours to carry out the translation reaction.
as §1, with “Reporter assays were carried out as follows.” for “The dimer of each aMD4dY-leucine zipper fusion was evaluated by luciferase assay.”
as §2, with “or the above cell-free expression” for “or the cell-free expression”
as §3, with “The medium supernatant in an amount of 100 μL was removed, 50 μL of Glo reagent was added, and cells were lysed at room temperature for 10 minutes.” left out, “A signal activity value relative to a sample without an addition of evaluation compound was obtained and defined as relative reporter activity.” left out

[5] = target: T1, Recombinant Human Erythropoietin R Fc …; assay: ribosome display selection on Erythropoietin R Fc chimera on magnetic beads, from a 1:50:50 DNA mix; DNA length analysis of the recovered cDNA
Method: Immobilization of target molecules to magnetic beads was carried out. […] The magnetic beads were washed three times with 100 μL of 1× TBS-T buffer, then resuspended in 10 μL of 1× TBS-T buffer and allowed to stand on ice.

[6] = target: EpoR (Homo sapiens, UniProt P19235); assay: PathHunter eXpress EpoR-JAK2 Functional Assay of EMP-leucine zipper fusion dimer (Example 3); format: cell-based; conditions: diluted cell-free expression reaction solution; 3 hours stimulation; No DNA negative control; FIG. 14
Sequence of EpoR (P19235 25-508): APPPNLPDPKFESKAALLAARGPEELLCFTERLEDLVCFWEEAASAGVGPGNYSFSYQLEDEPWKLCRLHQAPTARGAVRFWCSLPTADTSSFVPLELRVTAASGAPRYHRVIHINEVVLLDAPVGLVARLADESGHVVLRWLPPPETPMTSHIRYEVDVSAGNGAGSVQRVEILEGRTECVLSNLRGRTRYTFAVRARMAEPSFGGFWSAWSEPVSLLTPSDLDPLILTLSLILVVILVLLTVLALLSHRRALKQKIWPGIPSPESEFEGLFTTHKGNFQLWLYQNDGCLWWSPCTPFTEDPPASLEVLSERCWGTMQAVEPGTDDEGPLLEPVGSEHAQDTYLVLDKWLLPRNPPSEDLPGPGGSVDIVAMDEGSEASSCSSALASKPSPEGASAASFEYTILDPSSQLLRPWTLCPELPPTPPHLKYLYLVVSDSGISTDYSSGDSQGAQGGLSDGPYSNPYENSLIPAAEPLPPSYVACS
Sequence of EpoR (O60674 whole entry partner, the tested form may be a part): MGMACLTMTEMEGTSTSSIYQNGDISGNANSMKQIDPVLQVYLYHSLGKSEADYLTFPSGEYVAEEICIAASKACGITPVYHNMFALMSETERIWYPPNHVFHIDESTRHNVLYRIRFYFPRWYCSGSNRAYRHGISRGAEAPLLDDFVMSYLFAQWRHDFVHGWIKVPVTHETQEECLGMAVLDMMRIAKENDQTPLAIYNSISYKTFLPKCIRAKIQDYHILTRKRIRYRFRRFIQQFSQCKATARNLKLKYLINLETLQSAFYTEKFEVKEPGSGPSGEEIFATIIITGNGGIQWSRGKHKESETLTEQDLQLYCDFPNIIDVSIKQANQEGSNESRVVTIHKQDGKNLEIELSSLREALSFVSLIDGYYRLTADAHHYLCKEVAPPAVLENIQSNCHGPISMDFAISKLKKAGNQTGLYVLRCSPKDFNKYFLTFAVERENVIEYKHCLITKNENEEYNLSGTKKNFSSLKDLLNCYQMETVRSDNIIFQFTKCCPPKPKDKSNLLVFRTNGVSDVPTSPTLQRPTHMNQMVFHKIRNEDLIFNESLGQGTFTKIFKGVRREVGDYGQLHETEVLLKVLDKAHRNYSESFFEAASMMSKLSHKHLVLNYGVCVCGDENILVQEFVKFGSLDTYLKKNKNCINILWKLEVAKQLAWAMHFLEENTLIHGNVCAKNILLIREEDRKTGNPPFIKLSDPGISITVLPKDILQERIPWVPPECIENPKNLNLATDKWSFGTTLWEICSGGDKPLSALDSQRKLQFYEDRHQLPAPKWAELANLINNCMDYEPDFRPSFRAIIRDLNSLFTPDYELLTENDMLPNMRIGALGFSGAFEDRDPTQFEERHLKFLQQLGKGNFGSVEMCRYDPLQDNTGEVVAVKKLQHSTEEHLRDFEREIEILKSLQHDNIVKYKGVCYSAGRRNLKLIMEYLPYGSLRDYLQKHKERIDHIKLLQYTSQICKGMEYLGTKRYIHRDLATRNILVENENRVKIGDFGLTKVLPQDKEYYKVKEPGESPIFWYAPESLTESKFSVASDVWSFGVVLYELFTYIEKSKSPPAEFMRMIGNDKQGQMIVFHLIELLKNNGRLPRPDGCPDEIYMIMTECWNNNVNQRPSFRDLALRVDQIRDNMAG
Method: The ability of the EMP-leucine zipper fusion dimer to activate EpoR was assessed using PathHunter® eXpress EpoR-JAK2 Functional Assay Kit (DiscoveRx).
Cells for EPO activity evaluation contained in the PathHunter® eXpress EpoR-JAK2 Functional Assay Kit were seeded in a 96-well plate and cultured for 24 hours at 37° C. under 5% CO2. A cell-free expression reaction solution containing the EMP-leucine zipper fusion were diluted and added to the cells. […] To the cells stimulated at room temperature for 3 hours, the prepared Substrate Reagent was added and incubated for 60 minutes. Chemiluminescence intensity was quantified with a Nivo plate reader (Perkin Elmer).

Row | relative reporter activity (SRE activity) [2] | Molecule | further results
1 | activity was also exhibited | aMD4dY-PA8-cys-JunΔhep: aMD4dY fusion with c-Jun zipper having heparin binding ability removed, SEQ ID NO: 47 (protein, aMD4dY-PA8-cys-Junhep; DISULFID 5..20 Disulfide bridge between Cys-5 and Cys-20) MAETCRQFNRRTHEVWNLDCGAAPAAPAPAAGCGGQIAQLEEKVQTLQAQNSELASTANMLREQVAQLKQKVMN | –
2 | found to have signal activation ability | cys-Jun-PA8-aMD4dY: aMD4dY-leucine zipper fusion, SEQ ID NO: 50 (protein, disulfide 55-70) MGGCGGRIARLEEKVKTLKAQNSELASTANMLREQVAQLKQKVMNAAPAAPAPACRQFNRRTHEVWNLDC | –
3 | found to have signal activation ability | aMD4dY-PA8-cys-CEBPα: aMD4dY-CEBPα leucine zipper fusion, SEQ ID NO: 49 (protein, aMD4dY-PA8-cys-CEBP; DISULFID 5..20 Disulfide bridge between Cys-5 and Cys-20) MAETCRQFNRRTHEVWNLDCGAAPAAPAPAAGCGGRNVETQQKVLELTSDNDRLRKRVEQLSRELDTLRGIFRQ | –
4 | found to have signal activation ability | Jun-cys-PA8-aMD4dY: aMD4dY-leucine zipper fusion, SEQ ID NO: 51 (protein, Jun-cys-PA8-aMD4dY; DISULFID 56..71 Disulfide bridge between Cys-56 and Cys-71) MGRIARLEEKVKTLKAQNSELASTANMLREQVAQLKQKVMNGGCGGAAPAAPAPACRQFNRRTHEVWNLDC | –
5 | did not show activity | aMD4dY-PA8-Jun: aMD4dY-leucine zipper fusion without cysteine residue, SEQ ID NO: 46 (protein, aMD4dY-PA8-Jun; DISULFID 5..20 Disulfide bridge between Cys-5 and Cys-20) MAETCRQFNRRTHEVWNLDCGAAPAAPAPAAGGGRIARLEEKVKTLKAQNSELASTANMLREQVAQLKQKVMN | –

Continued, molecule first:

Row | Molecule | relative reporter activity (SRE activity) [2] | further results
6 | CRQFNRRTHEVWNLDC (disulfide 1-16) [aMD4dY] | – | HGF-like activity (Met agonist) when dimerized [1]: exhibits an HGF-like activity
7 | aMD4dY-PA8-cys-Jun: aMD4dY-leucine zipper fusion polypeptide, SEQ ID NO: 45, cell-free expressed, forms disulfide dimer (protein, disulfide dimer; aMD4dY-PA8-cys-Jun; DISULFID 5..20 Disulfide bridge between Cys-5 and Cys-20) MAETCRQFNRRTHEVWNLDCGAAPAAPAPAAGCGGRIARLEEKVKTLKAQNSELASTANMLREQVAQLKQKVMN | showed activity comparable to HGF | –
8 | aMD4dY-Jun-cys-N11-SecM-GS3 (designed binder, cyclic peptide part closed by a disulfide bond between its two Cys, In the reporter assays it was a free cell-free translation product) MAETCRQFNRRTHEVWNLDCGAAPAAPAPAAGGRIARLEEKVKTLKAQNSELASTANMLREQVAQLKQKVMNGCGGKDHLIHNHHKHEHAHAEHLFSTPVWISQAQGIRAGGSGSGS | – | binding result [3]: binds
9 | EMP′-Jun-cys-N11-SecM-GS3: erythropoietin receptor binding cyclic peptide (EMP′)-leucine zipper fusion, SEQ ID NO: 73 (protein, cyclic peptide disulfide; EMP'-Jun-cys-N11-SecM-GS3; DISULFID 5..14 Disulfide bridge between Cys-5 and Cys-14) MAETCHMGPMTWVCGAAPAAPAPAAGGRIARLEEKVKTLKAQNSELASTANMLREQVAQLKQKVMNGCGGKDHLIHNHHKHEHAHAEHLFSTPVWISQAQGIRAGGSGSGS | – | relative SRE reporter activity (relative receptor activity) [4]: only aMD4dY-Jun-cys-N11-SecM-GS3 showed activity
10 | TPO-Jun-cys-N11-SecM-GS3: thrombopoietin receptor binding cyclic peptide-leucine zipper fusion, SEQ ID NO: 72 (protein, cyclic peptide disulfide; TPO-Jun-cys-N11-SecM-GS3; DISULFID 5..18 Disulfide bridge between Cys-5 and Cys-18) MAETCADGPTLREWISFCGAAPAAPAPAAGGRIARLEEKVKTLKAQNSELASTANMLREQVAQLKQKVMNGCGGKDHLIHNHHKHEHAHAEHLFSTPVWISQAQGIRAGGSGSGS | – | relative SRE reporter activity (relative receptor activity) [4]: only aMD4dY-Jun-cys-N11-SecM-GS3 showed activity
11 | EMP-Jun-cys-N11-SecM-GS3 (designed binder, cyclic peptide part closed by a disulfide bond between its two Cys, In the PathHunter assay it was a free cell-free translation product) MAETGGLYACHMGPMTWVCQPLRGAAPAAPAPAAGGRIARLEEKVKTLKAQNSELASTANMLREQVAQLKQKVMNGCGGKDHLIHNHHKHEHAHAEHLFSTPVWISQAQGIRAGGSGSGS | – | binding result [5]: binds
12 | EMP-PA8-cys-Jun: EMP-leucine zipper fusion, SEQ ID NO: 67 (protein, EMP-PA8-cys-Jun; DISULFID 7..16 Disulfide bridge between Cys-7 and Cys-16) MGGLYACHMGPMTWVCQPLRGAAPAAPAPAAGCGGRIARLEEKVKTLKAQNSELASTANMLREQVAQLKQKVMN | – | ability to activate EpoR (relative receptor activity, chemiluminescence) [6]: activated EpoR

From patent US20240026343A1, “METHOD FOR SCREENING DIMERIZED CYCLIC PEPTIDE” (AJINOMOTO CO., INC., priority 2021, published 2024)
